The assay deals with plasma proteins (fresh human plasma). The assay is described as follows: size exclusion chromatography (Sephadex G-50 spin columns) with gamma counting, after incubation in fresh human plasma at 37 C for up to 4 h. For orientation: SEC sorts molecules by how far they enter the pores of the column.

A value given as a limit tells only on which side of the number the result lay.

In turn, “99mTc-HYNIC-P8RI (obtained with tricine/EDDA as coligands) (peptide)” showed a protein binding (% bound to plasma proteins) of less than 5%.

The values above are taken from patent US20190092858A1.
